Biological target: T1, His-GAS41 (human, UniProt O95619 1-227)
T1 construct: source: E. coli M15 [pRep4], pQE30, purified (Ni-NTA)
Assay: pull-down; GST-RAP30 full length or fragments d1-d3 on glutathione-sepharose 4B as bait, purified His-GAS41 (10-20 ug) as prey, over night at 4°C; immunoblot
Settings: both partners purified

T1 sequence (O95619 whole entry): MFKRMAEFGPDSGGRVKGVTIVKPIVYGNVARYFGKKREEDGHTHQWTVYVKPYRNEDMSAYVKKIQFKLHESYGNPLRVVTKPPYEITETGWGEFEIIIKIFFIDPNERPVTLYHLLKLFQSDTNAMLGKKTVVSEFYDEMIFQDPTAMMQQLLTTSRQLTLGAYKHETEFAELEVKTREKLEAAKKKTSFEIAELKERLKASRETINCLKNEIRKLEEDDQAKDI

Row | Binder | binding result
1 | GST-RAP30 d3 (DNA binding site, aa169-249) (domain or fragment, human, UniProt P13984 169-249, looked up, source: E. coli BL21 (DE3), pGEX-4T1) KKEDGKRARADKQHVLDMLFSAFEKHQYYNLKDLVDITKQPVVYLKEILKEIGVQNVKGIHKNTWELKPEYRHYQGEEKSD | binds
2 | GST-RAP30 d2 (RAP74 binding domain and polymerase binding domain, aa1-169) (domain or fragment, human, UniProt P13984 1-169, looked up, source: E. coli BL21 (DE3), pGEX-4T1) MAERGELDLTGAKQNTGVWLVKVPKYLSQQWAKASGRGEVGKLRIAKTQGRTEVSFTLNEDLANIHDIGGKPASVSAPREHPFVLQSVGGQTLTVFTESSSDKLSLEGIVVQRAECRPAASENYMRLKRLQIEESSKPVRLSQQLDKVVTTNYKPVANHQYNIEYERKK | binds

Reference: article PMC2908078, “The YEATS family member GAS41 interacts with the general transcription factor TFIIF” (BMC Molecular Biology, 2010)
